Laboratory results from the supplement of paper PMC10567573.
± gives the standard deviation.

Test: protein stability index of a GFP-peptide fusion (GPS, HEK-293T) (PSI 1-6); higher = more stable
Settings: c terminus: a fixed tail appended
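Also: 24-mer peptide tiles fused after GFP, lentivirally expressed, FACS-sorted into six equal bins by GFP/DsRed ratio, decoded by Illumina sequencing, PSI is the read-weighted mean bin number.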

Sequence	protein stability index (treatment: DMSO)	protein stability index (treatment: MLN4924 1 uM, 8 h)
EGNSMRCGRKLAKDGEYCWRWTGF [GMCL1]	2.49 ± 0.22	2.11 ± 0.14
EHLPVKPDTMEKLRTHIDAIILAL [DENND6A]	2.64 ± 0.3	2.63 ± 0.51
EILTCGRDGEPEPMQKLQDLVNRT [RBBP5]	4.01 ± 0.2	3.78 ± 0.25
EIPKNCVVAAVGKELIIFRLVAPT [WDR41]	2.69 ± 0.6	2.28 ± 0.43
EIVNYEPLGLEADMWSIGVITYIL [DAPK3]	2.35 ± 0.48	1.98 ± 0.27
EKDWGLEGYVWRGSQLEDQALRGL [ZSWIM9]	2.97 ± 0.48	3.62 ± 0.58
EKEESRREAEKQNYLAEHCPPLHI [TNNI2]	4.93 ± 0.17	4.94 ± 0.22
ELCCVAELDNPMQQKWTKPARAGS [C2CD2L]	3.37 ± 0.39	3.6 ± 0.2
ELGLLIFFLFIGVILFSSAVYFAE [KCNA1]	2.04 ± 0.53	2.06 ± 0.37
ELKLEQQEAAERESKLLRDLSAAN [LRRC45]	4.62 ± 0.18	4.77 ± 0.23
ELTFSYIAFDGVVGSGGRRDSTAR [RTN2]	3.17 ± 0.079	3.15 ± 0.28
ELVSADVIDLFDEQGLSALHLAAQ [RIPK4]	3.02 ± 0.78	3.56 ± 0.4
EMDMVVFRPEMKKHSWCLKRKNPP [N4BP2L1]	3.25 ± 0.31	3.25 ± 0.18
EMLGRKCLTLATAVVQLYLALPPG [WAS]	3.02 ± 0.3	3.3 ± 0.55
EMRIPALNAYMKSLLSLPVWVLMD [NCF4]	3.26 ± 0.95	2.92 ± 0.55
EMSEKRGPTSSNPRKRHREDSDVE [MLH1]	5.49 ± 0.44	5.49 ± 0.14
ENFKGLAIPYLEHIIHVWEETGSR [VPS39]	2.52 ± 0.32	2.48 ± 0.4
ENILMCVDDAYVRRMAAEATEWQK [SRPK2]	3.52 ± 0.26	3.55 ± 0.17
ENVKDVPFGFQTVTSDVNKLSSFY [SERPINB5]	2.74 ± 0.15	3.09 ± 0.46
ENVLAALEGLNLSILKAMGKTKKD [NECAB1]	3.12 ± 0.12	3.31 ± 0.18
EPHPRPLLQRELMVPGTRHSAVLR [TNXB]	3.93 ± 0.42	4.2 ± 0.59
EPLQALLERASATLQDLVFDECGI [PRAME]	2.25 ± 0.2	2.67 ± 0.18

Sequence	protein stability index (treatment: DMSO)	protein stability index (treatment: MLN4924 1 uM, 8 h)
EQKLRACLEGSINEHSAHCPHTPE [RPAIN]	4.92 ± 0.28	4.99 ± 0.23
EQKTGTEAEAADSGAVGARRFLLC [MFSD9]	4.48 ± 0.15	4.42 ± 0.1
EQPFIPVEVLVDLFLKEGACDELF [PRAME]	2.39 ± 0.16	2.39 ± 0.35
EQRTIQAQKESLQNQHHSASLQAS [APBB1IP]	5.16 ± 0.19	4.99 ± 0.18
EQVRFLMKSYSFLREAVPGILRAR [SOAT2]	1.85 ± 0.62	2.1 ± 0.51
ERDREREPEAASSRGSPVRVKREF [USP39]	5.4 ± 0.26	5.39 ± 0.17
ERIEARLATLEGDDPSLRKTHSSP [PSD2]	5.08 ± 0.37	5.09 ± 0.18
ERPRMNANSLLASPTGLSPYLRFG [CRY1]	2.89 ± 0.21	2.98 ± 0.22
ERYRHEIAHDGQRIYVLGGGTSWT [KLHDC10]	2.83 ± 0.48	2.79 ± 0.23
ESEDCKLPSNPCATTNACEKPIGS [KRT33B]	5.48 ± 0.097	5.34 ± 0.18
ESFRDLQLRLLQAPLQADLTEQVW [SCARA5]	2.59 ± 0.089	3.1 ± 0.4
ESLMALCTDFCLRNLDGTLGYLLD [ZER1]	2.71 ± 0.4	2.94 ± 0.39
ESPIPEDKDRRFVFSYFLATDMIS [EFHC1]	2.33 ± 0.28	2.23 ± 0.29
ESPSLTSTPVCSQKVVVTTPLHRD [MYBL2]	4.83 ± 0.2	4.5 ± 0.11
ESSQTDLKLVAHPRAKSKVWKYFG [ZBED1]	3.02 ± 0.31	3.42 ± 0.27
ESTTKESSEASQLEDAAGGDSASE [FBXO34]	5.61 ± 0.34	5.71 ± 0.12
ESVVKSEDFSLPAYMDRRDHPLPE [COX4I1]	5.1 ± 0.17	4.82 ± 0.098
ETHLRHMKALLGSYAHSVEDTHVQ [FCHO1]	3.49 ± 0.5	3.35 ± 0.29
ETIKCVVVGDNAVGKTRLICARAC [RHOBTB1]	2.39 ± 0.2	2.44 ± 0.21
ETKKVLGLQDTITAELVVIEDAAE [PALM]	4.92 ± 0.35	4.78 ± 0.32
ETLQPSVWFGGREHVLMFAKLALY [TMEM175]	2.52 ± 0.46	2.44 ± 0.43
ETRDWGGAQFEGEKGRALQIRDWR [ZSWIM9]	3.63 ± 0.32	3.84 ± 0.15

Sequence	protein stability index (treatment: DMSO)	protein stability index (treatment: MLN4924 1 uM, 8 h)
ETTERMKCLYYLYATLDLNAVKYV [PDS5B]	2.88 ± 0.3	3.12 ± 0.47
ETVADVRTLPNASTVDNIRSIFGN [MLH1]	4.21 ± 0.18	4.19 ± 0.11
ETVQTWIELLTGETWNPFKLQYQL [GOLPH3L]	2.65 ± 0.6	2.74 ± 0.71
ETVVNRIAAGEVIQRPANAIKEMI [MLH1]	3.17 ± 0.17	3.36 ± 0.19
EVCCTSIVYATEKKQTKVEFPEAR [KCTD13]	3.88 ± 0.34	3.9 ± 0.28
EVDEEGFTVRPDVTQNSTAEPSRF [FCHO1]	5.26 ± 0.13	5.26 ± 0.2
EVFEGREDSILGDPKKLLTQHFVQ [MAGEA3]	3.42 ± 0.49	3.29 ± 0.4
EVMKCIVEVISDTLSKPSPMPVSQ [CHGA]	2.55 ± 0.18	2.48 ± 0.4
EVSSIQVRRKPQHGVCSQLLGNYR [SERPINB9P1]	2.84 ± 0.38	2.94 ± 0.29
EWVISTGHDKCVSWMCTRSGNMLG [WDFY1]	2.09 ± 0.37	2.01 ± 0.41
EYLENQVIKDKDDSVDAQNICHVW [RNF180]	3.42 ± 0.26	3.57 ± 0.27
FAHSSNLLRHQRIHTGERPYKCPE [ZNF263]	2.99 ± 0.28	3.35 ± 0.36
FDGPEAWGVCEPQREEVEERMWAA [ZER1]	3.43 ± 0.71	4 ± 0.53
FEAPPLQGQAAAPASGSGADSEPA [TRIM55]	5.65 ± 0.28	5.53 ± 0.1
FEDLPLQEPQSPQKLNPGFDLAKG [PLAGL1]	5.03 ± 0.14	4.83 ± 0.19
FESLPENASHKLEVRLVPVSFEDP [ATE1]	3.68 ± 0.13	3.68 ± 0.31
FFFSSPGNNNGTSIEDGQIPEIIF [BTBD1]	2.39 ± 0.22	2.44 ± 0.33
FHGWKYMFGLVIPLGVLQAIAMYF [SLC2A12]	2.31 ± 0.46	2.6 ± 0.56
FKKGKNPTGLLALQQIADFMTTNV [ADD1]	2 ± 0.23	2.61 ± 0.34
FKRSTGTWHHTKPLLPSDLRRTGC [GAN]	2.78 ± 0.22	2.82 ± 0.39
FKTYISPWERAMGVDPQQKMELGI [MYOZ1]	2.42 ± 0.25	2.31 ± 0.38
